Reference: article PMC10397247
Blank lines part the entries; values can stand above or below the binder they belong to.

What was measured:
Experiment in all cases: two-hybrid library CCNG1;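 further: natural log of median RNA to DNA barcode read ratio; higher means stronger binding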
4H3354-bA = target: T1, 4H3354-bA
T1 chain: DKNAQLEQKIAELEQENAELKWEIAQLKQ

4H338-bA = target: T2, 4H338-bA
T2 chain: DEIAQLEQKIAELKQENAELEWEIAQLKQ

4H3427-bA = target: T3, 4H3427-bA
T3 chain: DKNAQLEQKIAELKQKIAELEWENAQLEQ

4H3782-bA = target: T4, 4H3782-bA
T4 chain: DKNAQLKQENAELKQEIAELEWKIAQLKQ

4H3855-bA = target: T5, 4H3855-bA
T5 chain: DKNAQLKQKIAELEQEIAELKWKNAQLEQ

4H4001-bA = target: T6, 4H4001-bA
T6 chain: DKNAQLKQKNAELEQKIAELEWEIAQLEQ

4H454-bA = target: T7, 4H454-bA
T7 chain: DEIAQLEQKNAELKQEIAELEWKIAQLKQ

4H568-bA = target: T8, 4H568-bA
T8 chain: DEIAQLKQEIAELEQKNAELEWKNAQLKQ

4H607-bA = target: T9, 4H607-bA
T9 chain: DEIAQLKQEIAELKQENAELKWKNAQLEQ

4H687-bA = target: T10, 4H687-bA
T10 chain: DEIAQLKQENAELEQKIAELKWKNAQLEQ

4H717-bA = target: T11, 4H717-bA
T11 chain: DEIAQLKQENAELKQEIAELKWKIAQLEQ

4H72-bA = target: T12, 4H72-bA
T12 chain: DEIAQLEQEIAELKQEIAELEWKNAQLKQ

4H754-bA = target: T13, 4H754-bA
T13 chain: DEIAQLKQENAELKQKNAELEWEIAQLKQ

4H797-bA = target: T14, 4H797-bA
T14 chain: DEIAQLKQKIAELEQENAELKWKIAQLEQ

4H883-bA = target: T15, 4H883-bA
T15 chain: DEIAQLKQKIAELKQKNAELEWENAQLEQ

4H908-bA = target: T16, 4H908-bA
T16 chain: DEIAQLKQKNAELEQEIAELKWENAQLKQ

4H918-bA = target: T17, 4H918-bA
T17 chain: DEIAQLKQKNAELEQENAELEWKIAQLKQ

4H953-bA = target: T18, 4H953-bA
T18 chain: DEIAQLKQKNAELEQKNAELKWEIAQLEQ

4H967-bA = target: T19, 4H967-bA
T19 chain: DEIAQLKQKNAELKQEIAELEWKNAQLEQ

P9A-bA = target: T20, P9A-bA
T20 chain: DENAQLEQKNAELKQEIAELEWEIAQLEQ

4H3189-bH = target: T21, 4H3189-bH
T21 chain: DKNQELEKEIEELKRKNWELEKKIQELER

4H331-bH = target: T22, 4H331-bH
T22 chain: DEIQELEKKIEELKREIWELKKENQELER

4H3606-bH = target: T23, 4H3606-bH
T23 chain: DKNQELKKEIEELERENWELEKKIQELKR

4H370-bH = target: T24, 4H370-bH
T24 chain: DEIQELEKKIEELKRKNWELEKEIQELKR

4H3782-bH = target: T25, 4H3782-bH
T25 chain: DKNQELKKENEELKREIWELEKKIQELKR

4H3843-bH = target: T26, 4H3843-bH
T26 chain: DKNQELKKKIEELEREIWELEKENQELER

4H4001-bH = target: T27, 4H4001-bH
T27 chain: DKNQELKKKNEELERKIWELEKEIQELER

4H462-bH = target: T28, 4H462-bH
T28 chain: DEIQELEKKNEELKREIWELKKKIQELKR

4H568-bH = target: T29, 4H568-bH
T29 chain: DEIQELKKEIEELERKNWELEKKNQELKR

4H607-bH = target: T30, 4H607-bH
T30 chain: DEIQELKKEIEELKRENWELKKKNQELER

4H687-bH = target: T31, 4H687-bH
T31 chain: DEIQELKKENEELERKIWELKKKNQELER

4H72-bH = target: T32, 4H72-bH
T32 chain: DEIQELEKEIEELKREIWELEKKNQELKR

4H797-bH = target: T33, 4H797-bH
T33 chain: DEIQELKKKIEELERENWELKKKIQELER

4H883-bH = target: T34, 4H883-bH
T34 chain: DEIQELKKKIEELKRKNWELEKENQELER

4H918-bH = target: T35, 4H918-bH
T35 chain: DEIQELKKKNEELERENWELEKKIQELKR

4H953-bH = target: T36, 4H953-bH
T36 chain: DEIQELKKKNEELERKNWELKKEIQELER

interaction score (4H3354-bA): 1.66
interaction score (4H338-bA): 0.149
interaction score (4H3427-bA): -0.0236
interaction score (4H3782-bA): -0.851
interaction score (4H3855-bA): -0.492
interaction score (4H4001-bA): -0.362
interaction score (4H454-bA): -1.24
interaction score (4H568-bA): -1.07
interaction score (4H607-bA): -0.0475
interaction score (4H687-bA): 0.42
interaction score (4H717-bA): -0.712
interaction score (4H72-bA): -0.822
interaction score (4H754-bA): -0.511
interaction score (4H797-bA): -1.14
interaction score (4H883-bA): -0.0506
interaction score (4H908-bA): -1.17
interaction score (4H918-bA): -0.0912
interaction score (4H953-bA): -0.675
interaction score (4H967-bA): -0.407
interaction score (P9A-bA): -1.59
B1: 4H3354-bA (peptide)
chain: DKNAQLEQKIAELEQENAELKWEIAQLKQ

interaction score (4H3189-bH): 0.907
interaction score (4H331-bH): -0.227
interaction score (4H3606-bH): -0.801
interaction score (4H370-bH): -0.165
interaction score (4H3782-bH): -0.496
interaction score (4H3843-bH): -0.157
interaction score (4H4001-bH): -0.0803
interaction score (4H462-bH): -0.167
interaction score (4H568-bH): -0.408
interaction score (4H607-bH): -2.19
interaction score (4H687-bH): -0.776
interaction score (4H72-bH): -0.107
interaction score (4H797-bH): -0.148
interaction score (4H883-bH): -0.365
interaction score (4H918-bH): -0.173
interaction score (4H953-bH): 0.375
B2: 4H3189-bH (peptide)
chain: DKNQELEKEIEELKRKNWELEKKIQELER
